In publication PMC5942779, “Identification of a peptide inhibitor for the histone methyltransferase WHSC1” (PLoS ONE, 2018) one finds Biochemical IC50: inhibition of 3H-methyl transfer from SAM to the biotinylated H4 peptide by WHSC1 941–1240 and Biochemical IC50: inhibition of 3H-methyl transfer from SAM to the biotinylated H4 peptide by WHSC1L1 1054–1285 data, which are given here for one molecule.

Some results are limits rather than exact numbers.

For one assay, the target named is WHSC1 941–1240 (UniProt O96028).
Sequence of WHSC1 941–1240 (O96028 941-1240): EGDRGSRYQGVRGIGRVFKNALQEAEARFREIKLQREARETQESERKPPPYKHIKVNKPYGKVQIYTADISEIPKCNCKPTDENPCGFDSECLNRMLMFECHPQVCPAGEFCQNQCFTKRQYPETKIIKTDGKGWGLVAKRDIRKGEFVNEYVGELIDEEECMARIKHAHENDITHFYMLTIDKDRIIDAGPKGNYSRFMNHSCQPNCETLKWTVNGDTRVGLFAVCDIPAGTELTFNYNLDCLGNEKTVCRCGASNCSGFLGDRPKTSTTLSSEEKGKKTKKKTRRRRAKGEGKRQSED
Another assay addresses WHSC1L1 1054–1285 (UniProt O96028).

Sequence of WHSC1L1 1054–1285 (O96028 1054-1285): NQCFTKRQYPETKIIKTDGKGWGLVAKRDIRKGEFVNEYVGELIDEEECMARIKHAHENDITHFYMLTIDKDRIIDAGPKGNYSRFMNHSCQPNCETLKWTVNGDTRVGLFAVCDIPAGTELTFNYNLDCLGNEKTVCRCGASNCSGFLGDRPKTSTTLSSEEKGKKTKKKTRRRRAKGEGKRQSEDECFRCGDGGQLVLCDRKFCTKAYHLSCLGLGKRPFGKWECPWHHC

On to Ac-GVARI-NH2 [PTD3], for which the Biochemical IC50: inhibition of 3H-methyl transfer from SAM to the biotinylated H4 peptide by WHSC1 941–1240 in the assay with WHSC1 941–1240 stood at 640 µM. Besides, the Biochemical IC50: inhibition of 3H-methyl transfer from SAM to the biotinylated H4 peptide by WHSC1L1 1054–1285 in the assay with WHSC1L1 1054–1285 is more than 1000 µM.
